Experimental data reported in patent EP3443010B1 (Ose Immunotherapeutics, dated 2024).
Several values for one entry are separate records, joined by “and”; a condition that tells them apart may be missing. Equal values may be shown once.

What was measured:
[1] = target: T1, recombinant hSIRPa (Sino Biologicals, reference 10975-H08H) (human, UniProt P78324 31-370); experiment: ELISA, hSIRPa (Sino 10975-H08H) coated at 0.5 ug/ml, anti-mouse Fc detection
T1 construct: A different catalogue item from m21; also called SIRPa-His (ELISA with the mouse antibodies)

[2] = target: T2, Recombinant hSIRPb-His (Antibodies-online, reference ABIN3077231) (human, UniProt Q5TFQ8 30-371); experiment: Blitz (BLI), SIRPb-His on Ni-NTA biosensor, antibody at 20 ug/mL
T2 construct: also called human SIRPb recombinant protein (Blitz); not shown: His tag (histidine tail)

[3] = target: T3, SIRPg on peripheral human CD3+ T cells (human, UniProt Q9P1W8 29-387); experiment: flow cytometry on human CD3+ T cells, percent positive cells
T3 construct: whole, on cells; also called T cells that are known to express SIRPγ; human T cells

[4] = target: T4, Recombinant hSIRPg-His (Sino Biologicals, reference 11828-H08H) (human, UniProt Q9P1W8 29-360); experiment: Blitz (BLI), SIRPg-His on Ni-NTA biosensor, antibody at 20 ug/mL
T4 construct: also called human SIRPg recombinant protein; not shown: His tag (histidine tail)
T4 sequence (Q9P1W8 29-360 limits assumed): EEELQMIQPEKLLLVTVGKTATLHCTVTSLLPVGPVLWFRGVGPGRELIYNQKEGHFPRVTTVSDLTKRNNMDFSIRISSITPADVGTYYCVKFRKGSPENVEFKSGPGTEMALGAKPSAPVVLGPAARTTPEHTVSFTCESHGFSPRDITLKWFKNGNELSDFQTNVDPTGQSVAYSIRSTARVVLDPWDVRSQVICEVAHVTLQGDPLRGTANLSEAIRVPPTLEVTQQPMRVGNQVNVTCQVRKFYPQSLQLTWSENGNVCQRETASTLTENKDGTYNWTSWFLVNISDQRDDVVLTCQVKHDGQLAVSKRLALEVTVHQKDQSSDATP

T2 sequence (Q5TFQ8 30-371): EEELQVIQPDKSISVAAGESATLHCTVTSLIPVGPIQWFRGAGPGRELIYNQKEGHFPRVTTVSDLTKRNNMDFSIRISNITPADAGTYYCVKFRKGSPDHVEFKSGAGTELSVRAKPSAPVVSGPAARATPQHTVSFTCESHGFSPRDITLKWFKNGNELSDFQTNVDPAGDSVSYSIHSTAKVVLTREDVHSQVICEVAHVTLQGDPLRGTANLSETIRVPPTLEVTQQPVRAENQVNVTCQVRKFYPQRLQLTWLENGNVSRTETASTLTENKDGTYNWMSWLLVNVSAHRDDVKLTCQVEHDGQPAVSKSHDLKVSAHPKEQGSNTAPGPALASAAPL
T1 sequence (P78324 other isoform, or with tags, fused parts or gaps H08H H08H): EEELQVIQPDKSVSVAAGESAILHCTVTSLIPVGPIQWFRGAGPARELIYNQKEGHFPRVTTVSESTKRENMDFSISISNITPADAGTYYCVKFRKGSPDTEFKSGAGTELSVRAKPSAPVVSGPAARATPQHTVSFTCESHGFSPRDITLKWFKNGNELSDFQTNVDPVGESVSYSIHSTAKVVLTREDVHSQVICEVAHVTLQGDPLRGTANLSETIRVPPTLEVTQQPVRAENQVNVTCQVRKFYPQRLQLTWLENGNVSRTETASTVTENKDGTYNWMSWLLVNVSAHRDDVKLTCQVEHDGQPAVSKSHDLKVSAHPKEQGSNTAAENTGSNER
T3 sequence (Q9P1W8 29-387): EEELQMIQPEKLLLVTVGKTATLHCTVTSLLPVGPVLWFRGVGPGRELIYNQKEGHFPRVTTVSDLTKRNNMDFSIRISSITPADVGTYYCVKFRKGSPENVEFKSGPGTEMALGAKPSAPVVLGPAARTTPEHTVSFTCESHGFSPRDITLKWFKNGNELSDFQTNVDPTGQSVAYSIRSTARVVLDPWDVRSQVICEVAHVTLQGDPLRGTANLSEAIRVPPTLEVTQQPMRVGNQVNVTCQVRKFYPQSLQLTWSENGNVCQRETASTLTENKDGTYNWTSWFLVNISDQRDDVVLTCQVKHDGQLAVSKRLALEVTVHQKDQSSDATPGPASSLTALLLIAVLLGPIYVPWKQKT

B1: mouse antibody 18D5 (antibody, mouse IgG2b, kappa)
heavy: QVQLQQPGAELVRPGSSVKLSCKASGYTFTSYWVHWVKQRPIQGLEWIGNIDPSDSDTHYNQKFKDKASLTVDKSSSTAYMQLSSLTFEDSAVYYCVRGGTGTMAWFAYWGQGTLVTVSAAKTTPPSVYPLAPGCGDTTGSSVTLGCLVKGYFPESVTVTWNSGSLSSSVHTFPALLQSGLYTMSSSVTVPSSTWPSQTVTCSVAHPASSTTVDKKLEPSGPISTINPCPPCKECHKCPAPNLEGGPSVFIFPPNIKDVLMISLTPKVTCVVVDVSEDDPDVQISWFVNNVEVHTAQTQTHREDYNSTIRVVSTLPIQHQDWMSGKEFKCKVNNKDLPSPIERTISKIKGLVRAPQVYILPPPAEQLSRKDVSLTCLVVGFNPGDISVEWTSNGHTEENYKDTAPVLDSDGSYFIYSKLNMKTSKWEKTDSFSCNVRHEGLKNYYLKKTISRSPGK
light: DVVMTQTPLSLPVSLGDQASISCRSSQSLVHSYGNTYLYWYLQKPGQSPKLLIYRVSNRFSGVPDRFSGSGSGTDFTLKISRVEAEDLGVYFCFQGTHVPYTFGSGTKLEIKRADAAPTVSIFPPSSEQLTSGGASVVCFLNNFYPKDINVKWKIDGSERQNGVLNSWTDQDSKDSTYSMSSTLTLTKDEYERHNSYTCEATHKTSTSPIVKSFNRNEC
notes: also called m18D5; m18D5 clone
- EC50 [1]: 0.06 nM and 0.009 µg/mL

B2: chimeric mouse/human 18D5 antibody (antibody, human IgG4 S228P, kappa)
heavy: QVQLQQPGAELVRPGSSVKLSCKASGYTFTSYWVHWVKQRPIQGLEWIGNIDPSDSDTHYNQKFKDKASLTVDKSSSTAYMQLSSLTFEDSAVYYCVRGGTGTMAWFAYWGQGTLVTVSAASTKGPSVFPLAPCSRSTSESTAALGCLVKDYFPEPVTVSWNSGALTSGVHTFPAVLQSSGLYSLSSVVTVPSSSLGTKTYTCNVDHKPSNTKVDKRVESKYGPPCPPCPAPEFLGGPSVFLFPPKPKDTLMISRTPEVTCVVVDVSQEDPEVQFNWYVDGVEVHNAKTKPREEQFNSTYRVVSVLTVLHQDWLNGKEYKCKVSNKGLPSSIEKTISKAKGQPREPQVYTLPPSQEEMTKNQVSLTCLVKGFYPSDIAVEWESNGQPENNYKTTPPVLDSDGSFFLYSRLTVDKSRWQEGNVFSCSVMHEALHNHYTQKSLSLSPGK
light: DVVMTQTPLSLPVSLGDQASISCRSSQSLVHSYGNTYLYWYLQKPGQSPKLLIYRVSNRFSGVPDRFSGSGSGTDFTLKISRVEAEDLGVYFCFQGTHVPYTFGSGTKLEIKRTVAAPSVFIFPPSDEQLKSGTASVVCLLNNFYPREAKVQWKVDNALQSGNSQESVTEQDSKDSTYSLSSTLTLSKADYEKHKVYACEVTHQGLSSPVTKSFNRGEC
notes: also called chimeric 18D5; the chimeric antibody
- binding result [2]: binds
- binding result [3]: no binding (tested: 10 micrograms/ml)

B3: HFLA (antibody, human IgG4 S228P, kappa, V domains shown)
VH: EVQLVQSGAEVKKPGESLRISCKASGYSFTSYWVHWVRQMPGKGLEWMGNIDPSDSDTHYSPSFQGHVTLSVDKSISTAYLQLSSLKASDTAMYYCVRGGTGTMAYFAYWGQGTLVTVSS
VL: DVVMTQSPLSLPVTLGQPASISCRSSQSLVHSYGNTYLYWYQQRPGQSPRLLIYRVSNRFSGVPDRFSGSGSGTDFTLKISRVEAEDVGVYFCFQGTHVPYTFGGGTKVEIKR
notes: also called humanized 18D5 variant HFLA
- binding result [2]: binds

B4: HEFLA (antibody, human IgG4 S228P, kappa, V domains shown)
VH: EVQLVQSGAEVKKPGESLRISCKASGYSFTSYWVHWVRQMPGKGLEWMGNIDPSDSDTHYSPSFQGHVTLSVDKSISTAYLQLSSLKASDTAMYYCVRGGTGTLAYFAYWGQGTLVTVSS
VL: DVVMTQSPLSLPVTLGQPASISCRSSQSLVHSYGNTYLYWYQQRPGQSPRLLIYRVSNRFSGVPDRFSGSGSGTDFTLKISRVEAEDVGVYFCFQGTHVPYTFGGGTKVEIKR
notes: also called humanized 18D5 variant HEFLA
- binding result [2]: binds

B5: HEFLB (antibody, human IgG4 S228P, kappa, V domains shown)
VH: EVQLVQSGAEVKKPGESLRISCKASGYSFTSYWVHWVRQMPGKGLEWMGNIDPSDSDTHYSPSFQGHVTLSVDKSISTAYLQLSSLKASDTAMYYCVRGGTGTLAYFAYWGQGTLVTVSS
VL: DVVMTQSPLSLPVTLGQPASISCRSSQSLVHSYGNTYLYWFQQRPGQSPRLLIYRVSNRFSGVPDRFSGSGSGTDFTLKISRVEAEDVGVYYCFQGTHVPYTFGGGTKVEIKR
notes: also called humanized 18D5 variant HEFLB; anti-SIRPa HEFLB
- binding result [2]: binds

B6: HFLB (antibody, human IgG4 S228P, kappa, V domains shown)
VH: EVQLVQSGAEVKKPGESLRISCKASGYSFTSYWVHWVRQMPGKGLEWMGNIDPSDSDTHYSPSFQGHVTLSVDKSISTAYLQLSSLKASDTAMYYCVRGGTGTMAYFAYWGQGTLVTVSS
VL: DVVMTQSPLSLPVTLGQPASISCRSSQSLVHSYGNTYLYWFQQRPGQSPRLLIYRVSNRFSGVPDRFSGSGSGTDFTLKISRVEAEDVGVYYCFQGTHVPYTFGGGTKVEIKR
notes: also called humanized 18D5 variant HFLB
- binding result [2]: binds
- Kd [4]: 104 nM
